{"source": "paper PMC8024323", "about": "“Drosophila TNFRs Grindelwald and Wengen bind Eiger with different affinities and promote distinct cellular functions” (Nature Communications, 2021)", "molecules": {"B1": {"name": "Egr^146–409 (extracellular portion of Eiger, His6-tagged) (domain or fragment, Drosophila melanogaster, UniProt Q8MUJ1-2 146-409, looked up)", "chain": "GADYEDYTDMLNKLNNAHTGTTPTSETTAEGEGETDSASSASNDDNVFDDFTSYNAHKKKQERKSRSIADVRNEEQNIQGNHTELQEKSSNEATSKESPAPLHHRRRMHSRHRHLLVRKARSEDSRPAAHFHLSSRRRHQGSMGYHGDMYIGNDNERNSYQGHFQTRDGVLTVTNTGLYYVYAQICYNNSHDQNGFIVFQGDTPFLQCLNTVPTNMPHKVHTCHTSGLIHLERNERIHLKDIHNDRNAVLREGNNRSYFGIFKV", "notes": "Cloned in a pET43 vector; Trimer by static light scattering; also called Egr/TNF; Egr extracellular domain; source: E. coli SHuffle cells, purified (HiTrap chelating Ni column, Superdex-200 SEC)"}, "B2": {"name": "Egr^269–409 (TNF-homology domain of Eiger, tryptic fragment) (domain or fragment, Drosophila melanogaster, UniProt Q8MUJ1-2 269-409, looked up)", "chain": "DSRPAAHFHLSSRRRHQGSMGYHGDMYIGNDNERNSYQGHFQTRDGVLTVTNTGLYYVYAQICYNNSHDQNGFIVFQGDTPFLQCLNTVPTNMPHKVHTCHTSGLIHLERNERIHLKDIHNDRNAVLREGNNRSYFGIFKV", "notes": "Trimer in the crystal (threefold crystallographic symmetry); also called Egr-TNF; TNF domain of Egr"}}, "key": {"[1]": {"molecular_target": "Egr^146–409 (extracellular portion of Eiger, His6-tagged) (Drosophila melanogaster) (UniProt Q8MUJ1)", "assay": "ITC; MicroCal PEAQ-ITC, 25 °C, 0.02 M Tris-HCl pH 8.0, 0.3 M NaCl; Grnd^30–97 at 100–340 μM titrated into 8 μM Egr^146–409; Wgn^78–201 at 4.5 mM titrated into 410 μM Egr^146–409; single-site fit"}, "[2]": {"molecular_target": "B2", "assay": "SEC; 30 μM Egr^146–409 incubated with Grnd^30–97 in a 1:1.3 molar ratio, treated with trypsin, loaded on a Superdex-5/150 column; fractions on Coomassie SDS-PAGE", "details": "both partners purified"}, "[3]": {"molecular_target": "the molecule itself", "assay": "SEC-MALS; static light scattering, Viscotek GPCmax/TDA with a Superdex 200-10/300 increase column, 0.02 M Tris-HCl pH 8.0, 0.3 M NaCl, 5% glycerol; about 75 μL at about 2 mg/mL (Egr alone and the two complexes)"}, "Grnd^30–97 Asn67Ala": {"molecular_target": "T1, Grnd^30–97 Asn67Ala (Drosophila melanogaster, UniProt Q9VJ83 30-97, Asn67Ala)", "T1 sequence": "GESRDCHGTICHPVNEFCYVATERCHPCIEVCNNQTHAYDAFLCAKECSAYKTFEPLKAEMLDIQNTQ", "assay": "ITC"}, "Grnd^30–97 Glu52Ala": {"molecular_target": "T2, Grnd^30–97 Glu52Ala (Drosophila melanogaster, UniProt Q9VJ83 30-97, Glu52Ala)", "T2 sequence": "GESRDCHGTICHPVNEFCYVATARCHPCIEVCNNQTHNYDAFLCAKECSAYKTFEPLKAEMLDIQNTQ", "assay": "ITC"}, "Grnd^30–97 His66Ala": {"molecular_target": "T3, Grnd^30–97 His66Ala (Drosophila melanogaster, UniProt Q9VJ83 30-97, His66Ala)", "T3 sequence": "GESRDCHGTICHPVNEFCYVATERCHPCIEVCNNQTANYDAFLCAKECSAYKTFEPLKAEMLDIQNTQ", "assay": "ITC"}, "[4]": {"molecular_target": "the molecule itself", "assay": "crystal structure; Egr^269–409:Grnd^30–81 complex, 2.02 Å, space group P321, one 1:1 complex per asymmetric unit, 3:3 hetero-hexamer by the crystallographic threefold axis"}, "[5]": {"molecular_target": "B1", "assay": "ITC; MicroCal PEAQ-ITC, 25 °C, 0.02 M Tris-HCl pH 8.0, 0.3 M NaCl; Grnd^30–97 at 100–340 μM titrated into 8 μM Egr^146–409; Wgn^78–201 at 4.5 mM titrated into 410 μM Egr^146–409; single-site fit", "details": "both partners purified"}, "[6]": {"molecular_target": "T4, Strep-Egr^146–409 Asn333Ala (Drosophila melanogaster, UniProt Q8MUJ1-2 146-409, Asn333 with Ala)", "T4 construct": "also called substitution of the Egr glycosylation site Asn333 with Ala; source: mutation by QuikChange", "T4 sequence (looked up)": "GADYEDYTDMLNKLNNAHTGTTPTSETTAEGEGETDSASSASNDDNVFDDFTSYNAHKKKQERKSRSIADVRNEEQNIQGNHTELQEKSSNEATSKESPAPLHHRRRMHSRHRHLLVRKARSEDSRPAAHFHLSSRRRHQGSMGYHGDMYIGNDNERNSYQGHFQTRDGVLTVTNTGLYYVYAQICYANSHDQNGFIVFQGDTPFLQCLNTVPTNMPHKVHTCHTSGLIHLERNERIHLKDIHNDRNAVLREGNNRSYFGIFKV", "assay": "pull-down; 2 μM strep-tagged Egr^146–409 adsorbed on Strep-tactin beads, 10 μM Grnd^30–97 in solution, 1 h at 4 °C, 0.01 M Hepes pH 7.5, 0.1 M NaCl, 5% glycerol, 0.05% Tween, 0.5 mM EDTA; Coomassie staining", "details": "both partners purified"}, "Strep-Egr^146–409": {"molecular_target": "T5, Strep-Egr^146–409 (Drosophila melanogaster, UniProt Q8MUJ1-2 146-409)", "T5 construct": "probably SHuffle cells as for the His6 construct", "T5 sequence (looked up)": "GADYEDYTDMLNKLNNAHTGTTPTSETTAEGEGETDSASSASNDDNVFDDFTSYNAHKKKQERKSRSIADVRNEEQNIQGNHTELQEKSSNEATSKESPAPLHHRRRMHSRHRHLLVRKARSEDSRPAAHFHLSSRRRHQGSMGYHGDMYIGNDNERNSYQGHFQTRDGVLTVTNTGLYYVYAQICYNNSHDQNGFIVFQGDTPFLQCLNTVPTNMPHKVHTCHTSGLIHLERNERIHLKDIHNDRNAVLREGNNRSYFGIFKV", "assay": "pull-down; 2 μM strep-tagged Egr^146–409 adsorbed on Strep-tactin beads, 10 μM Grnd^30–97 in solution, 1 h at 4 °C, 0.01 M Hepes pH 7.5, 0.1 M NaCl, 5% glycerol, 0.05% Tween, 0.5 mM EDTA; Coomassie staining", "details": "both partners purified"}}, "data": [{"molecule": "Wgn^78–201 (whole extracellular domain of Wengen) (from UniProt Q9VWS4 78-201) (domain or fragment)", "values": [{"measurement": "Kd", "setting": "[1]", "value": 12, "unit": "µM"}]}, {"molecule": "Grnd^30–81 (tryptic fragment of the extracellular domain of Grindelwald) (domain or fragment, Drosophila melanogaster, UniProt Q9VJ83 30-81, looked up, Grindelwald (Grnd), Drosophila melanogaster, residues 30-81; limits assigned by mass spectrometry; models hold residues 34-81 (free) and 31-81 (complex); also called Grnd-ECD; Grnd-CRD) GESRDCHGTICHPVNEFCYVATERCHPCIEVCNNQTHNYDAFLCAKECSAYK", "values": [{"measurement": "binding result", "setting": "[2]", "value": "binds"}]}, {"molecule": "B1", "values": [{"measurement": "stoichiometry N", "setting": "[3]", "value": 3}, {"measurement": "Kd", "setting": "Grnd^30–97 Asn67Ala", "value": 4.5, "unit": "µM"}, {"measurement": "Kd", "setting": "Grnd^30–97 Glu52Ala", "value": 1.3, "unit": "µM"}, {"measurement": "Kd", "setting": "Grnd^30–97 His66Ala", "value": 4.8, "unit": "µM"}]}, {"molecule": "B2", "values": [{"measurement": "stoichiometry N", "setting": "[4]", "value": 3}]}, {"molecule": "Grnd^30–97 (extracellular domain of Grindelwald) (domain or fragment, Drosophila melanogaster, UniProt Q9VJ83 30-97, looked up, Grindelwald (Grnd), Drosophila melanogaster, extracellular domain, residues 30-97; pETM14 vector; His6-tag removed with PreScission protease; Monomer by static light scattering; also called wild-type Grnd^30–97; source: E. coli SHuffle B cells (NEB), purified (Ni HiTrap, PreScission, Resource-Q); not shown: His6, N-terminal, cleaved) GESRDCHGTICHPVNEFCYVATERCHPCIEVCNNQTHNYDAFLCAKECSAYKTFEPLKAEMLDIQNTQ", "values": [{"measurement": "Kd", "setting": "[5]", "value": "~0.03", "unit": "µM"}, {"measurement": "binding result", "setting": "[6]", "value": "binds"}]}, {"molecule": "Grnd^30–97 Asn67Ala (domain or fragment, Drosophila melanogaster, UniProt Q9VJ83 30-97, looked up, Grindelwald (Grnd), Drosophila melanogaster, extracellular domain, residues 30-97; also called Asn67Ala^Grnd; Grnd-Asn67Ala; source: E. coli SHuffle B cells, purified (as Grnd^30–97); mutation by QuikChange; not shown: His6, N-terminal, cleaved) GESRDCHGTICHPVNEFCYVATERCHPCIEVCNNQTHAYDAFLCAKECSAYKTFEPLKAEMLDIQNTQ", "values": [{"measurement": "binding result", "setting": "[5]", "value": "binds"}, {"measurement": "binding result", "setting": "Strep-Egr^146–409", "value": "binds"}]}, {"molecule": "Grnd^30–97 Glu52Ala (domain or fragment, Drosophila melanogaster, UniProt Q9VJ83 30-97, looked up, Grindelwald (Grnd), Drosophila melanogaster, extracellular domain, residues 30-97; also called Glu52Ala^Grnd; Grnd-Glu52Ala; source: E. coli SHuffle B cells, purified (as Grnd^30–97); mutation by QuikChange; not shown: His6, N-terminal, cleaved) GESRDCHGTICHPVNEFCYVATARCHPCIEVCNNQTHNYDAFLCAKECSAYKTFEPLKAEMLDIQNTQ", "values": [{"measurement": "binding result", "setting": "[5]", "value": "binds"}, {"measurement": "binding result", "setting": "Strep-Egr^146–409", "value": "binds"}]}, {"molecule": "Grnd^30–97 His66Ala (domain or fragment, Drosophila melanogaster, UniProt Q9VJ83 30-97, looked up, Grindelwald (Grnd), Drosophila melanogaster, extracellular domain, residues 30-97; also called His66Ala^Grnd; Grnd-His66Ala; source: E. coli SHuffle B cells, purified (as Grnd^30–97); mutation by QuikChange; not shown: His6, N-terminal, cleaved) GESRDCHGTICHPVNEFCYVATERCHPCIEVCNNQTANYDAFLCAKECSAYKTFEPLKAEMLDIQNTQ", "values": [{"measurement": "binding result", "setting": "[5]", "value": "binds"}, {"measurement": "binding result", "setting": "Strep-Egr^146–409", "value": "binds"}]}]}
